According to patent US20260167699A1 (Chugai, published 2026):

B1: GpH7-A5/GpH7-B3 variant S337_02A/GpL16-k0 (antibody, human IgG1, kappa)
heavy 1: not shown
heavy 2: not shown
light: DIVMTQSPLSLPVTPGEPASISCQASESLVHSNRNTYLHWYLQKPGQSPQLLIYKVSNRFSGVPDRFSGSGSGTDFTLKISRVEAEDVGVYYCSQNTHVPPTFGQGTKVEIERTVAAPSVFIFPPSDEQLKSGTASVVCLLNNFYPREAKVQWKVDNALQSGNSQESVTEQDSKDSTYSLSSTLTLSKADYEKHKVYACEVTHQGLSSPVTKSFNRGEC
notes: copies: 1 + 1 + 2
B2: GpH7-A5/GpH7-B3 variant T335_06M/GpL16-k0 (antibody, human IgG1, kappa)
heavy 1: not shown
heavy 2: not shown
light: DIVMTQSPLSLPVTPGEPASISCQASESLVHSNRNTYLHWYLQKPGQSPQLLIYKVSNRFSGVPDRFSGSGSGTDFTLKISRVEAEDVGVYYCSQNTHVPPTFGQGTKVEIERTVAAPSVFIFPPSDEQLKSGTASVVCLLNNFYPREAKVQWKVDNALQSGNSQESVTEQDSKDSTYSLSSTLTLSKADYEKHKVYACEVTHQGLSSPVTKSFNRGEC
notes: copies: 1 + 1 + 2
B3: GpH7-A5/GpH7-B3 variant T335_01G/GpL16-k0 (antibody, human IgG1, kappa)
heavy 1: not shown
heavy 2: not shown
light: DIVMTQSPLSLPVTPGEPASISCQASESLVHSNRNTYLHWYLQKPGQSPQLLIYKVSNRFSGVPDRFSGSGSGTDFTLKISRVEAEDVGVYYCSQNTHVPPTFGQGTKVEIERTVAAPSVFIFPPSDEQLKSGTASVVCLLNNFYPREAKVQWKVDNALQSGNSQESVTEQDSKDSTYSLSSTLTLSKADYEKHKVYACEVTHQGLSSPVTKSFNRGEC
notes: copies: 1 + 1 + 2
B4: GpH7-A5/GpH7-B3 variant T335_05P/GpL16-k0 (antibody, human IgG1, kappa)
heavy 1: not shown
heavy 2: not shown
light: DIVMTQSPLSLPVTPGEPASISCQASESLVHSNRNTYLHWYLQKPGQSPQLLIYKVSNRFSGVPDRFSGSGSGTDFTLKISRVEAEDVGVYYCSQNTHVPPTFGQGTKVEIERTVAAPSVFIFPPSDEQLKSGTASVVCLLNNFYPREAKVQWKVDNALQSGNSQESVTEQDSKDSTYSLSSTLTLSKADYEKHKVYACEVTHQGLSSPVTKSFNRGEC
notes: copies: 1 + 1 + 2
B5: GpH7-A5/GpH7-B3 variant S337_12R/GpL16-k0 (antibody, human IgG1, kappa)
heavy 1: not shown
heavy 2: not shown
light: DIVMTQSPLSLPVTPGEPASISCQASESLVHSNRNTYLHWYLQKPGQSPQLLIYKVSNRFSGVPDRFSGSGSGTDFTLKISRVEAEDVGVYYCSQNTHVPPTFGQGTKVEIERTVAAPSVFIFPPSDEQLKSGTASVVCLLNNFYPREAKVQWKVDNALQSGNSQESVTEQDSKDSTYSLSSTLTLSKADYEKHKVYACEVTHQGLSSPVTKSFNRGEC
notes: copies: 1 + 1 + 2
B6: GpH7-A5/GpH7-B3 variant S337_07I/GpL16-k0 (antibody, human IgG1, kappa)
heavy 1: not shown
heavy 2: not shown
light: DIVMTQSPLSLPVTPGEPASISCQASESLVHSNRNTYLHWYLQKPGQSPQLLIYKVSNRFSGVPDRFSGSGSGTDFTLKISRVEAEDVGVYYCSQNTHVPPTFGQGTKVEIERTVAAPSVFIFPPSDEQLKSGTASVVCLLNNFYPREAKVQWKVDNALQSGNSQESVTEQDSKDSTYSLSSTLTLSKADYEKHKVYACEVTHQGLSSPVTKSFNRGEC
notes: copies: 1 + 1 + 2
B7: GpH7-A5/GpH7-B3 variant S337_15Y/GpL16-k0 (antibody, human IgG1, kappa)
heavy 1: not shown
heavy 2: not shown
light: DIVMTQSPLSLPVTPGEPASISCQASESLVHSNRNTYLHWYLQKPGQSPQLLIYKVSNRFSGVPDRFSGSGSGTDFTLKISRVEAEDVGVYYCSQNTHVPPTFGQGTKVEIERTVAAPSVFIFPPSDEQLKSGTASVVCLLNNFYPREAKVQWKVDNALQSGNSQESVTEQDSKDSTYSLSSTLTLSKADYEKHKVYACEVTHQGLSSPVTKSFNRGEC
notes: copies: 1 + 1 + 2
B8: GpH7-A5/GpH7-B3 variant S337_20W/GpL16-k0 (antibody, human IgG1, kappa)
heavy 1: not shown
heavy 2: not shown
light: DIVMTQSPLSLPVTPGEPASISCQASESLVHSNRNTYLHWYLQKPGQSPQLLIYKVSNRFSGVPDRFSGSGSGTDFTLKISRVEAEDVGVYYCSQNTHVPPTFGQGTKVEIERTVAAPSVFIFPPSDEQLKSGTASVVCLLNNFYPREAKVQWKVDNALQSGNSQESVTEQDSKDSTYSLSSTLTLSKADYEKHKVYACEVTHQGLSSPVTKSFNRGEC
notes: copies: 1 + 1 + 2
B9: GpH7-A5/GpH7-B3 variant S337_14T/GpL16-k0 (antibody, human IgG1, kappa)
heavy 1: not shown
heavy 2: not shown
light: DIVMTQSPLSLPVTPGEPASISCQASESLVHSNRNTYLHWYLQKPGQSPQLLIYKVSNRFSGVPDRFSGSGSGTDFTLKISRVEAEDVGVYYCSQNTHVPPTFGQGTKVEIERTVAAPSVFIFPPSDEQLKSGTASVVCLLNNFYPREAKVQWKVDNALQSGNSQESVTEQDSKDSTYSLSSTLTLSKADYEKHKVYACEVTHQGLSSPVTKSFNRGEC
notes: copies: 1 + 1 + 2
B10: GpH7-A5/GpH7-B3 variant T335_07I/GpL16-k0 (antibody, human IgG1, kappa)
heavy 1: not shown
heavy 2: not shown
light: DIVMTQSPLSLPVTPGEPASISCQASESLVHSNRNTYLHWYLQKPGQSPQLLIYKVSNRFSGVPDRFSGSGSGTDFTLKISRVEAEDVGVYYCSQNTHVPPTFGQGTKVEIERTVAAPSVFIFPPSDEQLKSGTASVVCLLNNFYPREAKVQWKVDNALQSGNSQESVTEQDSKDSTYSLSSTLTLSKADYEKHKVYACEVTHQGLSSPVTKSFNRGEC
notes: copies: 1 + 1 + 2
B11: GpH7-A5/GpH7-B3 variant S337_04F/GpL16-k0 (antibody, human IgG1, kappa)
heavy 1: not shown
heavy 2: not shown
light: DIVMTQSPLSLPVTPGEPASISCQASESLVHSNRNTYLHWYLQKPGQSPQLLIYKVSNRFSGVPDRFSGSGSGTDFTLKISRVEAEDVGVYYCSQNTHVPPTFGQGTKVEIERTVAAPSVFIFPPSDEQLKSGTASVVCLLNNFYPREAKVQWKVDNALQSGNSQESVTEQDSKDSTYSLSSTLTLSKADYEKHKVYACEVTHQGLSSPVTKSFNRGEC
notes: copies: 1 + 1 + 2

Target: T1, FcγRIIIa (human, UniProt P08637 17-208)
T1 construct: extracellular domain; also called 3a; FcγRIIIa extracellular domain
T1 sequence (P08637 other isoform, or with tags, fused parts or gaps): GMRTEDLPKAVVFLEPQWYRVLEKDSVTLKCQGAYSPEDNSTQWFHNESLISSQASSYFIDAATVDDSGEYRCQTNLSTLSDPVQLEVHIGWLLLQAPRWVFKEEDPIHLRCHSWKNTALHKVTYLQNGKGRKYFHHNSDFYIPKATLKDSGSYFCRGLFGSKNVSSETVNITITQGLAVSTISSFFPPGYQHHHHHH
Experiment: SPR (Biacore);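 note: antibody variants captured on an SPR sensor chip, with FcγRIIIa passed over as analyte in HBS-EP+ buffer at 25 °C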

Binder | He/Con 3a
B1 | 92.4 % of GpH7-A5/GpH7-B3/GpL16-k0
B2 | 97 % of GpH7-A5/GpH7-B3/GpL16-k0
B3 | 95.1 % of GpH7-A5/GpH7-B3/GpL16-k0
B4 | 100 % of GpH7-A5/GpH7-B3/GpL16-k0
B5 | 92.7 % of GpH7-A5/GpH7-B3/GpL16-k0
B6 | 88.3 % of GpH7-A5/GpH7-B3/GpL16-k0
B7 | 94.9 % of GpH7-A5/GpH7-B3/GpL16-k0
B8 | 93.8 % of GpH7-A5/GpH7-B3/GpL16-k0
B9 | 94 % of GpH7-A5/GpH7-B3/GpL16-k0
B10 | 102 % of GpH7-A5/GpH7-B3/GpL16-k0
B11 | 94.4 % of GpH7-A5/GpH7-B3/GpL16-k0
